Non-standard residues stand in square brackets, D forms with d. No end group written: not given here. Cit = NC(=O)NCCC[C@H](N)C(=O)O
Key:
[1] = tested on: New Zealand White rabbits; assay: High-dose IV bolus toxicity of ATI-5261 in rabbits (plasma ALT, AST, TG, unesterified cholesterol); format: in vivo, rabbit; conditions: male New Zealand White rabbits, single IV bolus 3, 30 or 300 mg/kg
Description: Peptides or peptidomimetics of the invention can be evaluated for toxicity using known assays. Examples of such assays are illustrated in the Examples section. Toxicity is typically assayed in a rat, rabbit, mouse, monkey or dog model. […] Safety chemistry panels including plasma alanine aminotransferase (ALT), aspartate amino transferase (AST), and creatine kinase (CK) can then be determined in the blood. The presence of elevated levels of these enzymes in the blood compared to control normal values is indicative of toxicity. A peptide of the invention is typically considered to be non-toxic or to have little toxicity, when the results using the highest dose, 300 mg/kg in this illustrative assay, are equivalent (fall within the standard deviation) of the values measured for the control animals that received vehicle alone, or are no more than 2 or 3 times background obtained with vehicle alone. […]
Cytotoxicity of an HDL mimetic peptide ATI-5261 at high doses was evaluated in rats and rabbits (FIG. 1). […]
For the experiments in FIG. 2, male chow-fed Wistar rats (Panels A and B) were administered ATI-5261 at doses of 3, 30, and 300 mg/kg as described in FIG. 1. Plasma triglyceride (TG, Panel A) and unesterified cholesterol (Panel B) concentrations were determined enzymatically at the times indicated. […]

C57Bl/6 mice = assay: Safety and TG elevating effects after IP injection in C57Bl/6 mice (plasma CPK, ALT, AST, lipids); format: in vivo
Description: The high-dose cytotoxic response of ATI-5261 observed in rat, rabbit and cynomolgus monkey is additionally recapitulated in mice (FIG. 4). Male chow-fed C57bl/6 mice were injected intraperitonelly (IP) with 30 or 300 mg/kg of lipid-fee ATI-5261. Blood was collected via the retro-orbital plexus 4 h after peptide injection and plasma subsequently obtained for measurement of CPK (Panel A) and ALT and AST activities (Panel B, ALT left bars; AST, right bars). Values are means±SD, n=4 mice per group.
This example illustrates that aromatic phenylalanine residues associated with the non-polar surface of ATI-5261 contributed to the majority of the peptide toxicity (FIG. 5). […] Blood was collected via retro-orbital plexus 4 h after injection for isolation of plasma. Levels of plasma CPK (Panel A), ALT (panel B) and AST (Panel C) were determined as described in FIG. 1. Values are means±SD, n=4 mice per group.
All values (mg/dl) are means±SD, n=4, determined at 4 and 6 h post treatment with peptide.

HDL in human plasma = assay: preβ HDL formation in human plasma, 2D NDGGE and western blot
Description: To test whether CS6253 exerts anti-atherogenic effects in a biological milieu, human plasma was exposed (5 min) to lipid-free peptide. Interactions of CS6253 with HDL and activity of plasma to stimulate cholesterol efflux was assessed, using J774 macrophages labeled with [^3H]cholesterol. Panel A—Cholesterol efflux activity of plasma treated with lipid-free peptides. Human plasma was incubated with 300 μg/ml peptides for 5 minutes (4° C.), diluted to 1% in serum-free RPMI-1640 culture medium and immediately added to [^3H]cholesterol-labeled J774 cells. […] Panel B—Induction of preβ HDL upon treatment of human plasma with CS6253. Plasma was exposed to a small amount of peptide relative to endogenous apoA-I (1:10 mole ratio, respectively) and formation of preβ HDL assessed by 2D non-denaturing gradient gel electrophoresis (NDGGE) and western blot analysis. […] This is consistent with no peptide being associated with the preβ HDL fraction, indicating the particles were authentic preβ particles composed on endogenous apoA-I.

ABCA1 = target: T1, ABCA1 (Mus musculus, UniProt P41233); assay: ABCA1 protein stabilization, western blot of J774 whole-cell lysates; format: cell-based; conditions: J774 cells after cAMP treatment, continued presence of peptide
T1 construct: treated (18 h) with a cAMP analog to induce ABCA1 protein expression; endogenous in cells; host or cells: J774 macrophages
Description: In some embodiments, the stabilization of ABCA is measured by direct measurement of ABCA (e.g., ABCA protein, or nucleic acid) using a cell based assay. Cell based assays can be performed in any cells in which ABCA is expressed (e.g., J774 macrophages), including cells which have been transfected with ABCA (e.g. HeLa cells). Any cell type can be used. For example, J774 macrophages can be used to assess relative ABCA1 protein levels in the presence and absence of polypeptides of the invention. The cells are first contacted with a compound that will induce ABCA (e.g., cAMP or a cAMP analogue such as, 8-bromo-cAMP) to upregulate ABCA (e.g., ABCA1) expression, then exposed to […] polypeptides of the invention in the absence of the cAMP stimulus to evaluate whether ABCA1 protein was stabilized or degraded. Relative levels of ABCA1 protein can be assessed using any means known in the art including, e.g., immunoblot analysis of cell membranes (Oram et al., J. Biol. Chem., 278:52379-52385 (2003)) or hybridization of nucleic acid probes to ABCA mRNA.
J774 macrophages were used for experiments. Panel A—Cells were labeled (48 h) with 3H cholesterol and treated with (right bars) and without (left bars) a cAMP analog to modulate ABCA1 expression. […]

T1 sequence (P41233 whole entry): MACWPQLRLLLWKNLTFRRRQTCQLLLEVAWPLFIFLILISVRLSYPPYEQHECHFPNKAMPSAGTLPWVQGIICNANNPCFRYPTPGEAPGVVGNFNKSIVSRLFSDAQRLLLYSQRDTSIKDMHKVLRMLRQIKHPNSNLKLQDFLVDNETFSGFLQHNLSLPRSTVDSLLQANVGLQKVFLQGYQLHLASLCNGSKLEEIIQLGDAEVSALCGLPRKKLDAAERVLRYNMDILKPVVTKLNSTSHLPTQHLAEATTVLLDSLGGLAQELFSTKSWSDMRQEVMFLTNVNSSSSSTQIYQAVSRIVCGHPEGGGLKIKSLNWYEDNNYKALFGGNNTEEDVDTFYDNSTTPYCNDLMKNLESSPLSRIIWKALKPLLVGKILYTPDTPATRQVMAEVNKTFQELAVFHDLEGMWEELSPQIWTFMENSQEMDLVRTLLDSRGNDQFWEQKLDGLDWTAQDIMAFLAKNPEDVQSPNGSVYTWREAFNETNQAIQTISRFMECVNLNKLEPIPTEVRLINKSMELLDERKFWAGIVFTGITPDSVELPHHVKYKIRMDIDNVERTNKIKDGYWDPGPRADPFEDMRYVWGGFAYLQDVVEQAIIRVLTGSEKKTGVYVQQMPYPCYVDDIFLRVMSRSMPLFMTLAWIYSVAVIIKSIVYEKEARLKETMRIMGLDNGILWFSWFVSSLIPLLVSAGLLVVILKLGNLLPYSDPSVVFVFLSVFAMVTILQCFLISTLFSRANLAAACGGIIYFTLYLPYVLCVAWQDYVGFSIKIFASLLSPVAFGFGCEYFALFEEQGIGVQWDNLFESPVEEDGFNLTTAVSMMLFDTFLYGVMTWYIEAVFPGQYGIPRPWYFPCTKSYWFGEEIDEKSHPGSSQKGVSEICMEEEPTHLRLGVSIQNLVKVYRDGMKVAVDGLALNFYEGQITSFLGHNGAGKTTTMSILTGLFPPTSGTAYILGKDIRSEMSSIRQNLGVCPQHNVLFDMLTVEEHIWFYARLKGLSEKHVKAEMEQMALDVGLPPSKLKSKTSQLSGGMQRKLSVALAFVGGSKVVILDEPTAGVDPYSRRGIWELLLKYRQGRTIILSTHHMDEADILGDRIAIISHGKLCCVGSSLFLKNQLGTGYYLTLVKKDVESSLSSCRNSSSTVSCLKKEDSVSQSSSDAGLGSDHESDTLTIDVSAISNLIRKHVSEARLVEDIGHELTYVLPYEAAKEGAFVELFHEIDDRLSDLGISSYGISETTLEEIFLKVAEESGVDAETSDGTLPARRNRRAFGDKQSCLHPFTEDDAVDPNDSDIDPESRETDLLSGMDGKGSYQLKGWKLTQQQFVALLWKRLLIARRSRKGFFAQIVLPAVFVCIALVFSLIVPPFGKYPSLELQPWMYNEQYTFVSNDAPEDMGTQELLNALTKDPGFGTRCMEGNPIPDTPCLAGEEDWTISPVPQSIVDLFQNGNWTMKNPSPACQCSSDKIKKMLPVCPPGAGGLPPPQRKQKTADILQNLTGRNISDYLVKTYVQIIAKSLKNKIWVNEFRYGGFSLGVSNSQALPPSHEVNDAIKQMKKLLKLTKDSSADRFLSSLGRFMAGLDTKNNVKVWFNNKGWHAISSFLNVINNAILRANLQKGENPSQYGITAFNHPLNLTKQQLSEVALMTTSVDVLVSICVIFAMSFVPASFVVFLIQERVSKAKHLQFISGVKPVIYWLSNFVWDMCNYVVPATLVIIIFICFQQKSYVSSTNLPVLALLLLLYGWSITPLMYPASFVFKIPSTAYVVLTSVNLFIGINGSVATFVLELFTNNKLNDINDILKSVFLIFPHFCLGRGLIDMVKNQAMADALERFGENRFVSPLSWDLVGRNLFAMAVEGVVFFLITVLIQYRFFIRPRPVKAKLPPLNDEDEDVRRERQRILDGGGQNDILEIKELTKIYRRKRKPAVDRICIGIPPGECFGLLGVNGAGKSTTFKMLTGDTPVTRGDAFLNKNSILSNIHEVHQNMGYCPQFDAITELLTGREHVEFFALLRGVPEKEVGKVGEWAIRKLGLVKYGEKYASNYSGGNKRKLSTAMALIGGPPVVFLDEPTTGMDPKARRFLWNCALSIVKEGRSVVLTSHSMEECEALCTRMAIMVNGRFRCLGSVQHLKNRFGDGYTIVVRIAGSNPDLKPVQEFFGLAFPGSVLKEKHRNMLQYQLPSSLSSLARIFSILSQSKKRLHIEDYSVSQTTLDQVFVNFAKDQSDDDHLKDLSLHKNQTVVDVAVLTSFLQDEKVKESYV

Row | Substance | cytotoxic response (plasma ALT and AST) [1] | plasma triglycerides and cholesterol [1] | plasma TG, total and unesterified (free) cholesterol (FC) (C57Bl/6 mice; C57Bl/6 mice, 300 mg/kg, 4 and 6 h post treatment) | cytotoxic/toxic response (plasma CPK, ALT, AST) (C57Bl/6 mice; male chow-fed C57Bl/6 mice, IP 300 mg/kg, plasma 4 h after injection) | association of peptide with HDL species in plasma (HDL in human plasma; antibody against CS6253) | preβ HDL formation (HDL in human plasma; peptide:endogenous apoA-I 1:10 mole ratio, apoA-I antibody) | ABCA1 protein levels (stabilization) (ABCA1)
1 | ATI-5261: HDL mimetic peptide, parent peptide; triglyceride elevating and muscle toxic peptide used as positive control (EVRSKLEEWFAAFREFAEEFLARLKS) [reference compound] | induced a cytotoxic response | increased plasma triglycerides and cholesterol | marked increase | High levels of cytotoxic markers | – | – | –
2 | EVCitSKLEEWLAALCitELAEELLARLKS (SEQ ID NO:2) (EV[Cit]SKLEEWLAAL[Cit]ELAEELLARLKS) [CS6253, citrulline form of LeuATI-5261, R3,14→Citrulline, 26-mer] | – | – | – | – | associated with α-HDL | increase in preβ HDL | maintained at high levels

Source: US9416162B2, “Peptides having reduced toxicity that stimulate cholesterol efflux” (The Regents of the University of California, priority 2013, dated 2016)
